Measurements from patent publication US20170368136A1.

How the values were obtained:
CaMKIV = test: cell-based or functional assay
CaMKII = test: cell-based or functional assay
Sequence of CaMKII (chain, from a related filing, as listed by the source): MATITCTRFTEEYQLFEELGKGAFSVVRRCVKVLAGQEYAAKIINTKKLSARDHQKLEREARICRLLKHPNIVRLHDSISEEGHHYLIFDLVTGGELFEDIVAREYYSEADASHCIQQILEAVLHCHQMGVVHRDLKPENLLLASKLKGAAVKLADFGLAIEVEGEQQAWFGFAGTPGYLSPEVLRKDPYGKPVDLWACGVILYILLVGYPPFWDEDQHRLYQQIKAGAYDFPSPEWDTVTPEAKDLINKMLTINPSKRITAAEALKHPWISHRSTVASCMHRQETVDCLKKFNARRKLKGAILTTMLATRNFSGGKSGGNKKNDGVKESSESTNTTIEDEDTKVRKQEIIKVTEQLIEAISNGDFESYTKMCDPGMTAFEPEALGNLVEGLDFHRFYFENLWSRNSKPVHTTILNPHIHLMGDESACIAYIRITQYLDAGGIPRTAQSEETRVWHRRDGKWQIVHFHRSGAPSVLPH

Binder	reduction of kinase activity in a kinase panel, 5 µM tatCN21 (CaMKIV)	IC50, phosphorylation of syntide 2 by CaMKII (CaMKII)
YGRKKRRQRRRKRPPKLGQIGRSKRVVIEDDR (modifications not checked) [tatCN21]	35%	–
KRPPKLGQIGRSKRVVIEDDR [CN21a]	–	100 nM
